Assay results from PMC10580122, “Human IL-35 Inhibits the Bioactivity of IL-12 and Its Interaction with IL-12Rβ2” (ImmunoHorizons, 2023).

Target: T1, recombinant human IL-12Rβ1 (human, UniProt P42701 24-545)
T1 construct: human IL-12 receptor subunit beta-1, recombinant; also called rIL-12Rβ1; source: bought: Sino Biological (11674-H08H)
Experiment: ELISA; solid-phase binding assay; wells coated with rIL-12Rβ1, rIL-12Rβ2 or no IL-12R chain; IL-12 or IL-12p40 monomer alone or with IL-35, each cytokine fixed at 5 μg/ml; overnight at 4°C; detected with anti-IL-12 or anti-IL-12p40 and HRP
Details: both partners purified

binding result: binds
B1: Human IL-12 (complex)
chain 1: RNLPVATPDPGMFPCLHHSQNLLRAVSNMLQKARQTLEFYPCTSEEIDHEDITKDKTSTVEACLPLELTKNESCLNSRETSFITNGSCLASRKTSFMMALCLSSIYEDLKMYQVEFKTMNAKLLMDPKRQIFLDQNMLAVIDELMQALNFNSETVPQKSSLEEPDFYKTKIKLCILLHAFRIRAVTIDRVMSYLNAS
chain 2: IWELKKDVYVVELDWYPDAPGEMVVLTCDTPEEDGITWTLDQSSEVLGSGKTLTIQVKEFGDAGQYTCHKGGEVLSHSLLLLHKKEDGIWSTDILKDQKEPKNKTFLRCEAKNYSGRFTCWWLTTISTDLTFSVKSSRGSSDPQGVTCGAATLSAERVRGDNKEYEYSVECQEDSACPAAEESLPIEVMVDAVHKLKYENYTSSFFIRDIIKPDPPKNLQLKPLKNSRQVEVSWEYPDTWSTPHSYFSLTFCVQVQGKSKREKKDRVFTDKTSATVICRKNASISVRAQDRYYSSSWSEWASVPCS
notes: p35 subunit of human IL-12 (IL-12p35); linked to p40 via a disulfide bond; p40 subunit of human IL-12 (IL-12p40); linked to p35 via a disulfide bond; Bought heterodimer of p35 and p40; also called exogenous human IL-12; source: bought: PeproTech (200-12H)
